Source: US20210070875A1 (SHANGHAI PHARMAEXPLORER, published 2021)

B1: 43E8F5B6 (antibody, V domains shown)
VH: EVQLQQSGPELVKPGASVKISCKASGYTFTDYYMSWMKQSHGKSLEWIGDINPNNGDNIYNQKFKGKATLTVDRSSSTAYMDLRSLTSEDSAVYYCARWYYYVSSFSYWYFDVWGTGTTVTVSS
VL: EIVLTQSPTTMAASPGEKITITCSATSSINSNYLHWYQQKPGFSPKLLIYRTSNLASGVPARFSGSGSGTSYSLTIGTMEAEDVATYYCQQGRTIPRTFGSGTKLEIK
B2: 5F8E2C11 (antibody, V domains shown)
VH: QVQLRQSGPGLVQPSQSLSITCTVSGFSLTSYGVHWVRQSPGKGLEWLGVIWSGGSTDYNAAFISRLSISKDYSKSQIFLTMNSLQTDDTAIYYCARNSRLGNCFDYWGQGTTLTVSS
VL: DIVMSQSPSSLAVSAGEKVTMSCKSSQSLLNSRTRKNYLAWYQQKPGQSPKLLIYWASTRESGVPDRFTGSGSGTDFTLTISSVQAEDLAVYYCKQSYNLPAFGGGTKLEIK
B3: 9D5A12G7 (antibody, V domains shown)
VH: QVQLKQSGPGLVQPSQSLSITCTVSGFSLTSYGVHWVRQSPGKGLEWLGVIWSGGSTDYNAAFISRLSISKDNSKSQVFFKMNSLQADDTAIYYCARNGLLGNAMDYWGQGTSVTVSS
VL: DIVMSQSPSSLAVSAGEKVTMSCKSSQSLLSSRTRKNYLAWYQQKPGQSPKLLIYWASTRESGVPDRFTGSGSGTDFTLTISSVQTEDLAVYYCKQSYNLLTFGAGTTLELK
B4: 8B5D1A9 (antibody, V domains shown)
VH: QVQLKQSGAELVKPGASVKISCKTSGYIFTDYYINWMKQRPGQGLEWIGKIGPGSGTTFYNEKFKGKATLTADKSSTTLYMQLSSLTAEDSAVYFCTRRGYYSSSYFYWGQGTTLTVSS
VL: DIVMTQSPSSLSVSAGEKVIMSCKSSQSLLNSERQKNYLAWYQQKPGQSPKLLIYGASTRESGVPDRFTGSGSGTDFTLTISSVQAEDLAVYYCLNDHSYPLTFGAGTKLELK
B5: 46H2A11C7 (antibody, V domains shown)
VH: QVQLKQSGAELVKPGASVKISCRASGYTFTDYFINWVKQRPGQGLEWIGKIGPGSGNIYQNEKFKDKATLTTDTSSSTAYMQLSSLTSEDSAVYFCARWGIQRGWGQGTTLTVSS
VL: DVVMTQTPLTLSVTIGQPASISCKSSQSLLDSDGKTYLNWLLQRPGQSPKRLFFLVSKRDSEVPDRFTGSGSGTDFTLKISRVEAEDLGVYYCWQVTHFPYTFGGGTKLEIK
B6: 2A12B2B2 (antibody, V domains shown)
VH: QVQLQQPGADLVKPGASVKMSCKASGYILTTYWITWVKQRPGQGLEWIGDIHPGSGSTKYNEKFKSKATLTVDTSSSTAYMQLTRLSSEDSAVYYCARRDYWGQGTTLTVSS
VL: DIQMTQTTSSLSASLGDKVTISCRASQDISNYLSWYQQKPDGTVKLLIYWISRLHSGVPSRFSGSGSGTDFSLTISNLEQEDIATYFCQQGNSLPPTFGGGTKLEVK
B7: 42B5G7D1 (antibody, V domains shown)
VH: QVQLQQSGPELVKPGASVKISCKASGYVFSNSWMNWVKQRPGKGLEWIGRIDPGDGDTKYNGKFKGKATLTADKSSSTAYMQLSSLTSEDSAVYFCVRFYYGSNYVGYYFDYWGQGTTLTVSS
VL: DVLMTQTPLSLPVSLGDQASISCRSSQSIVQSNGNTYLEWYLQKPGQSPKLLIYKVSNRFSGVPDRFSGSGSGTDFTLKISRVEAEDLGVYYCFQGSLVPPTFGGGTKLEIK

Molecular target: T1, human C5aR (human, UniProt P21730 1-350)
T1 chain: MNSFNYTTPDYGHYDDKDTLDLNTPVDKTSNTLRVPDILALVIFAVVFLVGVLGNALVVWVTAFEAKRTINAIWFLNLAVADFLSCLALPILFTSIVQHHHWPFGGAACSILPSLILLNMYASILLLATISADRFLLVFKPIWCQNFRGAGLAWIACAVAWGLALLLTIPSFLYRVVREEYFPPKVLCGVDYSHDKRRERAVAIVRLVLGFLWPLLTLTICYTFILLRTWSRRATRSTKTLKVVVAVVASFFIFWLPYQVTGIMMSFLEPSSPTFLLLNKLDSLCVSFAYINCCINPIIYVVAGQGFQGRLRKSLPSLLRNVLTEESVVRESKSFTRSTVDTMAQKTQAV
Assay: cell-based or functional assay
Note: test concentration or dose not given here.

Binder	C5a-induced human neutrophil migration, Celltiter-Glo fluorescence intensity value, Parallel sample 1 [fluorescence intensity]	C5a-induced human neutrophil migration, Celltiter-Glo fluorescence intensity value, Parallel sample 2 [fluorescence intensity]	C5a-induced human neutrophil migration, Celltiter-Glo fluorescence intensity value, Parallel sample 3 [fluorescence intensity]	C5a-induced human neutrophil migration, Celltiter-Glo fluorescence intensity value, Parallel sample 4 [fluorescence intensity]
B1	844	808	706	757
B2	575	429	400	313
B3	175	211	575	611
B4	655	713	706	750
B5	1460	1510	1930	2040
B6	670	597	233	204
B7	1200	1480	298	335
